Test [1] addresses T1, IgE-Fc(N265Q,N371Q) (human, UniProt P01854).
T1 chain: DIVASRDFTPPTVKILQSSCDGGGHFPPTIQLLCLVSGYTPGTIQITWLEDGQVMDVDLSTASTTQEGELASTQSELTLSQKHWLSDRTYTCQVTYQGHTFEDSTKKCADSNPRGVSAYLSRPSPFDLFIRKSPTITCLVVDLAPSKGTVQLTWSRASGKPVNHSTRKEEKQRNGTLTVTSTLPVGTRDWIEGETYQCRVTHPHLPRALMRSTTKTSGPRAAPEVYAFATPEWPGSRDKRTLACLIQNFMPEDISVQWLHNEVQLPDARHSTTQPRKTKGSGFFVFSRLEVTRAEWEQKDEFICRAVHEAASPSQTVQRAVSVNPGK
Kind of test: ITC. Background: Isothermal titration calorimetry measures the heat released or taken up as one component is titrated into another.

The target of test [2] is T1, IgE-Fc(N265Q,N371Q). Nature of the test: ITC.
Test [3] has as its target T1, IgE-Fc(N265Q,N371Q). Kind of test: SPR. On the technique in general: Surface plasmon resonance follows binding to a sensor surface in real time, without labels.
The target of test [4] is T1, IgE-Fc(N265Q,N371Q). Kind of test: stopped-flow fluorescence.

In general, Kd refers to the free concentration of one partner at which half of the binding sites on the other are occupied at equilibrium, for simple one-to-one binding. Read a high Kd as lower affinity. In general, kon refers to a measure of how fast the partners come together. High values mean faster complex formation, low ones slower complex formation.

B1: anti-ε-chain Fab (aεFab), anti-human IgE-Fc antibody in human IgG1 Fab format (Fab, V domains shown)
VH: QVQLQQSGPGLVKPSQTLSLTCGISGDSVSSNSAAWNWLRQSPSRGLEWLGRTYYRSKWYNDYAVSMKSRITINPDTSRNQFSLQLNSVTPEDTAVYYCARDGEISYDYYYYGMDVWGRGTLVTVSS
VL: QSVLTQPPSASGTPGQRVTISCSGSSSNIGNNGVNWYQQVPGKPPKLLIYYDDLLPSGVSDRFSGSKSGTSASLAISGLQSEDEADYYCEAWDDSLDGVVFGGGTKLTVL
In test [1], B1 came in with a dissociation constant Kd of 40 ± 20 nM and a dH of -3.5 ± 0.1 kcal/mol. In test [2], the “dH1 (first site)” value was -3.5 ± 0.1 kcal/mol and the “dH2 (second site)” value was -1.3 ± 0.1 kcal/mol. In test [3], the Kd is 95 nM. In test [4], the kon amounted to 670000 M⁻¹ s⁻¹.

The values above are taken from PMC3977038 (Nature structural & molecular biology, 2014).
